According to patent publication US7408027:
Each block holds one substance with its values, some of them ahead of it.

Assays:
[1] = target: taxol-stabilized microtubules made from PC tubulin; assay: microtubule pelleting assay after brain extract phosphorylation
[2] = target: taxol-stabilized microtubules made from PC tubulin; assay: microtubule pelleting assay, gel densitometry, fitted
[3] = target: taxol-stabilized microtubules made from PC tubulin; assay: microtubule pelleting assay after 90 min phosphorylation
[4] = target: taxol-stabilized microtubules made from PC tubulin; assay: microtubule pelleting assay, gel densitometry, fitted; 30 µM polymerized tubulin
[5] = target: taxol-stabilized microtubules made from PC tubulin; assay: microtubule pelleting assay after 35 kDal kinase, fitted
[6] = target: taxol-stabilized microtubules made from PC tubulin; assay: microtubule pelleting assay after 35 kDal kinase
[7] = target: taxol-stabilized microtubules made from PC tubulin; assay: co-sedimentation of tau with taxol-stabilized microtubules (30 µM polymerized tubulin), SDS gel densitometry, fitted binding curve
[8] = target: taxol-stabilized microtubules made from PC tubulin; assay: co-sedimentation of tau with microtubules in taxol, fitted binding curve (control curve)
[9] = target: taxol-stabilized microtubules made from PC tubulin; assay: co-sedimentation of tau with microtubules made from 10 µM tubulin in 20 µM taxol, fitted binding curve
[10] = target: taxol-stabilized microtubules made from PC tubulin; assay: microtubule pelleting assay, microtubules from 10 µM tubulin with 20 µM taxol
[11] = target: taxol-stabilized microtubules made from PC tubulin; assay: co-sedimentation of tau with taxol-stabilized microtubules, SDS gel densitometry, fitted binding curve
[12] = target: taxol-stabilized microtubules made from PC tubulin; assay: microtubule pelleting assay after MAP kinase

Substance: AP18 phosphorylated with the brain extract activity (from UniProt P10636 1-352)
difference in stoichiometry upon phosphorylation (Dn) (tau/tubulin dimer) [1]: 0.01
Kd [2]: 6.1 µM
stoichiometry n (tau/tubulin dimer) (tau/tubulin dimer) [2]: 0.48

Substance: htau23 mutant Ser202-Ala phosphorylated with brain extract (from UniProt P10636 1-352)
Kd [4]: 9.4 µM
stoichiometry n (tau/tubulin dimer) (tau/tubulin dimer) [4]: 0.31

Substance: htau23 phosphorylated by the 35 kDal kinase (from UniProt P10636 2-352)
Kd [5]: 8.8 µM
stoichiometry n (tau/tubulin dimer) (tau/tubulin dimer) [5]: 0.21
reduction in stoichiometry upon phosphorylation (Dn) (tau/tubulin dimer) [6]: 0.28

Substance: htau23/A404 (Ser404 replaced by Ala), unphosphorylated (from UniProt P10636 1-758)
Kd [11]: 4.3 µM
n [11]: 0.54

Substance: htau34 phosphorylated by the brain extract kinase activity for 90 min (stage 1) (from UniProt P10636 2-412)
fold decrease of stoichiometry against unphosphorylated htau34 [3]: 3 fold

Substance: htau40 phosphorylated by the brain extract kinase activity (from UniProt P10636 2-758)
difference in stoichiometry upon phosphorylation (Dn) (tau/tubulin dimer) [1]: 0.31
Kd [11]: 9.6 µM
n [11]: 0.15

Substance: htau40 phosphorylated with MAP kinase (from UniProt P10636 2-758)
difference in stoichiometry upon phosphorylation (Dn) (tau/tubulin dimer) [12]: 0.09
Kd [11]: 1.9 µM
n [11]: 0.37

Substance: human tau isoform htau34, bacterially expressed, unphosphorylated (from UniProt P10636 2-412)
Kd [7]: 1.4 µM
n [7]: 0.43
Kd [2]: 1 to 2 µM

Substance: human tau isoform htau40, bacterially expressed, unphosphorylated (from UniProt P10636 2-758)
Kd [11]: 1.1 µM
n [11]: 0.46

Further lines, results first:

fold decrease of stoichiometry against the unphosphorylated mutant [3]: 2 fold
Substance: S404-A mutant of htau34 after 90 min of phosphorylation by the brain extract kinase activity (from UniProt P10636 1-412)

difference in stoichiometry upon phosphorylation (Dn) (tau/tubulin dimer) [1]: 0.04
Substance: htau23 mutant Ser262-Ala phosphorylated with brain extract (from UniProt P10636 1-352)

difference in stoichiometry upon phosphorylation (Dn) (tau/tubulin dimer) [1]: 0.33
Kd [7]: 4.9 µM
n [7]: 0.16
Kd [8]: 4.9 µM
n [8]: 0.16
Kd [4]: 4.9 µM
stoichiometry n (tau/tubulin dimer) (tau/tubulin dimer) [4]: 0.16
Substance: htau23 phosphorylated by the brain extract kinase activity (stage 2-3, up to 24 h) (from UniProt P10636 2-352)

Kd [9]: 2.4 µM
n [9]: 0.6
stoichiometry (tau per tubulin dimer) (per tubulin dimer) [10]: 0.6
Substance: htau23 phosphorylated with GSK3 (from UniProt P10636 2-352)

Dn as percent of the unmutated control [1]: 52%
difference in stoichiometry upon phosphorylation (Dn) (tau/tubulin dimer) [1]: 0.17
Kd [11]: 9.3 µM
n [11]: 0.32
Substance: htau23/A404 phosphorylated by the brain extract kinase activity (from UniProt P10636 1-352)

Kd [7]: 10.4 µM
n [7]: 0.16
Substance: htau34 phosphorylated by the brain extract kinase activity (stage 2-3, up to 24 h) (from UniProt P10636 2-412)
